# ± gives the standard deviation of the averaged measurements.
# How the values were obtained:
# [1] = tested on: VchCAST RNA-guided transposition machinery (E. coli BL21(DE3) host, lacZ target); assay: relative integration efficiency (T-RL orientation) vs wild-type transposon end (log2 (normalized fold change)); transposon end mutated: right end (5 bp flank + 75 bp right end); higher = more efficient transposition
# How it was run: (§1)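 Each barcoded pool, 1549 left-end or 1849 right-end transposon variants in a pUC57 mini-transposon donor, went into E. coli BL21(DE3) with a T7-driven effector plasmid (CRISPR array, tniQ-cas8-cas7-cas6, tnsA-tnsB-tnsC). Plates contained 0.1 mM IPTG and were held at 37°C for 18 h. Input plasmids and genomic integration junctions were PCR-amplified and read by Illumina sequencing, with two biological output replicates and four reference barcodes. Relative integration efficiency is the fold change of output over input barcode abundance, normalised to the reference barcodes and log-transformed.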
# [2] = tested on: VchCAST RNA-guided transposition machinery (E. coli BL21(DE3) host, lacZ target); assay: relative integration efficiency (T-LR orientation) vs wild-type transposon end (log2 (normalized fold change)); transposon end mutated: right end (5 bp flank + 75 bp right end); higher = more efficient transposition
# How it was run: as §1
Sequence,relative integration efficiency (log2) [1],relative integration efficiency (log2) [2]
ACATTTGTTGATACAACCATAAAAGGATAATTACACCCATAAATTGATAATTATCCCACCCCATTTAACTATAACGCTCTGATCATAGTCAGACCAACATTGCTACGACCCGTATTCGCACCGACAC,-0.775 ± 0.14,2.28 ± 0.097
ACATTTGTTGATACAACCATAAAAGGATAATTACACCCATCAATTGATAATTATCACACCCAATTTAACTATAACGCTCTGATCATAGTCAGACCAACATTGCTACGACCCGTATTCGCACCGACAC,-2.32 ± 0.29,1.06 ± 0.24
ACATTTGTTGATACAACCATAAAAGGATAATTACACCCATCAATTGATAATTATCACACCCCATTTAACTATAACGCTCTGATCATAGTCAGACCAACATTGCTACGACCCGTATTCGCACCGACAC,-2.2 ± 0.15,1.27 ± 0.19
ACATTTGTTGATACAACCATAAAAGGATAATTACACCCATCAATTGATAATTATCCCACCCAATTTAACTATAACGCTCTGATCATAGTCAGACCAACATTGCTACGACCCGTATTCGCACCGACAC,-1.89 ± 0.25,0.901 ± 0.1
ACATTTGTTGATACAACCATAAAAGGATAATTACACCCATCAATTGATAATTATCCCACCCCATTTAACTATAACGCTCTGATCATAGTCAGACCAACATTGCTACGACCCGTATTCGCACCGACAC,-1.79 ± 0.17,0.942 ± 0.22
ACATTTGTTGATACAACCATAAAAGGATAATTACCCCCATAAATTGATAATTATCACACCCAATTTAACTATAACGCTCTGATCATAGTCAGACCAACATTGCTACGACCCGTATTCGCACCGACAC,-1.55 ± 0.26,1.37 ± 0.093
ACATTTGTTGATACAACCATAAAAGGATAATTACCCCCATAAATTGATAATTATCACACCCCATTTAACTATAACGCTCTGATCATAGTCAGACCAACATTGCTACGACCCGTATTCGCACCGACAC,-1.46 ± 0.44,1.61 ± 0.2
ACATTTGTTGATACAACCATAAAAGGATAATTACCCCCATAAATTGATAATTATCCCACCCAATTTAACTATAACGCTCTGATCATAGTCAGACCAACATTGCTACGACCCGTATTCGCACCGACAC,-0.765 ± 0.32,2.19 ± 0.4
ACATTTGTTGATACAACCATAAAAGGATAATTACCCCCATAAATTGATAATTATCCCACCCCATTTAACTATAACGCTCTGATCATAGTCAGACCAACATTGCTACGACCCGTATTCGCACCGACAC,-1.2 ± 0.22,1.78 ± 0.039
ACATTTGTTGATACAACCATAAAAGGATAATTACCCCCATCAATTGATAATTATCACACCCAATTTAACTATAACGCTCTGATCATAGTCAGACCAACATTGCTACGACCCGTATTCGCACCGACAC,-2.86 ± 0.32,-0.104 ± 0.42
ACATTTGTTGATACAACCATAAAAGGATAATTACCCCCATCAATTGATAATTATCACACCCCATTTAACTATAACGCTCTGATCATAGTCAGACCAACATTGCTACGACCCGTATTCGCACCGACAC,-3.19 ± 0.27,-0.157 ± 0.13
ACATTTGTTGATACAACCATAAAAGGATAATTACCCCCATCAATTGATAATTATCCCACCCAATTTAACTATAACGCTCTGATCATAGTCAGACCAACATTGCTACGACCCGTATTCGCACCGACAC,-0.787 ± 0.53,1.91 ± 0.034
ACATTTGTTGATACAACCATAAAAGGATAATTACCCCCATCAATTGATAATTATCCCACCCCATTTAACTATAACGCTCTGATCATAGTCAGACCAACATTGCTACGACCCGTATTCGCACCGACAC,-2.87 ± 0.26,-0.233 ± 0.32
ACATTTGTTGATACAACCATAAAAGGATAATTCACCCATAAATTGATAATTATCACACCCACATTTAACTATAACGCTCTGATCATAGTCAGACCAACATTGCTACGACCCGTATTCGCACCGACAC,-2.38 ± 0.38,0.902 ± 0.15
ACATTTGTTGATACAACCATAAAAGGATAATTCACCCCTAAATTGATAATTATCACACCCACATTTAACTATAACGCTCTGATCATAGTCAGACCAACATTGCTACGACCCGTATTCGCACCGACAC,-4.49 ± 0.25,-0.705 ± 0.48
ACATTTGTTGATACAACCATAAAAGGATCATTACACCCATAAATTGATAATTATCACACCCAATTTAACTATAACGCTCTGATCATAGTCAGACCAACATTGCTACGACCCGTATTCGCACCGACAC,-2.03 ± 0.18,1.34 ± 0.27
ACATTTGTTGATACAACCATAAAAGGATCATTACACCCATAAATTGATAATTATCACACCCCATTTAACTATAACGCTCTGATCATAGTCAGACCAACATTGCTACGACCCGTATTCGCACCGACAC,-2.29 ± 0.32,1.27 ± 0.23
ACATTTGTTGATACAACCATAAAAGGATCATTACACCCATAAATTGATAATTATCCCACCCAATTTAACTATAACGCTCTGATCATAGTCAGACCAACATTGCTACGACCCGTATTCGCACCGACAC,-1.69 ± 0.47,1.75 ± 0.057

Sequence,relative integration efficiency (log2) [1],relative integration efficiency (log2) [2]
ACATTTGTTGATACAACCATAAAAGGATCATTACACCCATAAATTGATAATTATCCCACCCCATTTAACTATAACGCTCTGATCATAGTCAGACCAACATTGCTACGACCCGTATTCGCACCGACAC,-2.12 ± 0.38,1.38 ± 0.021
ACATTTGTTGATACAACCATAAAAGGATCATTACACCCATCAATTGATAATTATCACACCCAATTTAACTATAACGCTCTGATCATAGTCAGACCAACATTGCTACGACCCGTATTCGCACCGACAC,-3.44 ± 0.37,-0.241 ± 0.022
ACATTTGTTGATACAACCATAAAAGGATCATTACACCCATCAATTGATAATTATCACACCCCATTTAACTATAACGCTCTGATCATAGTCAGACCAACATTGCTACGACCCGTATTCGCACCGACAC,-3.25 ± 0.32,0.228 ± 0.13
ACATTTGTTGATACAACCATAAAAGGATCATTACACCCATCAATTGATAATTATCCCACCCAATTTAACTATAACGCTCTGATCATAGTCAGACCAACATTGCTACGACCCGTATTCGCACCGACAC,-2.99 ± 0.16,0.119 ± 0.061
ACATTTGTTGATACAACCATAAAAGGATCATTACACCCATCAATTGATAATTATCCCACCCCATTTAACTATAACGCTCTGATCATAGTCAGACCAACATTGCTACGACCCGTATTCGCACCGACAC,-3.29 ± 0.28,-0.014 ± 0.4
ACATTTGTTGATACAACCATAAAAGGATCATTACCCCCATAAATTGATAATTATCACACCCAATTTAACTATAACGCTCTGATCATAGTCAGACCAACATTGCTACGACCCGTATTCGCACCGACAC,-2.28 ± 0.24,0.679 ± 0.16
ACATTTGTTGATACAACCATAAAAGGATCATTACCCCCATAAATTGATAATTATCACACCCCATTTAACTATAACGCTCTGATCATAGTCAGACCAACATTGCTACGACCCGTATTCGCACCGACAC,-2.55 ± 0.35,1.16 ± 0.12
ACATTTGTTGATACAACCATAAAAGGATCATTACCCCCATAAATTGATAATTATCCCACCCAATTTAACTATAACGCTCTGATCATAGTCAGACCAACATTGCTACGACCCGTATTCGCACCGACAC,-2.19 ± 0.29,0.912 ± 0.11
ACATTTGTTGATACAACCATAAAAGGATCATTACCCCCATAAATTGATAATTATCCCACCCCATTTAACTATAACGCTCTGATCATAGTCAGACCAACATTGCTACGACCCGTATTCGCACCGACAC,-2.25 ± 0.25,0.775 ± 0.15
ACATTTGTTGATACAACCATAAAAGGATCATTACCCCCATCAATTGATAATTATCACACCCAATTTAACTATAACGCTCTGATCATAGTCAGACCAACATTGCTACGACCCGTATTCGCACCGACAC,-4.48 ± 0.1,-1.13 ± 0.29
ACATTTGTTGATACAACCATAAAAGGATCATTACCCCCATCAATTGATAATTATCACACCCCATTTAACTATAACGCTCTGATCATAGTCAGACCAACATTGCTACGACCCGTATTCGCACCGACAC,-4.59 ± 0.85,-1.38 ± 0.048
ACATTTGTTGATACAACCATAAAAGGATCATTACCCCCATCAATTGATAATTATCCCACCCAATTTAACTATAACGCTCTGATCATAGTCAGACCAACATTGCTACGACCCGTATTCGCACCGACAC,-3.59 ± 0.36,-0.858 ± 0.08
ACATTTGTTGATACAACCATAAAAGGATCATTACCCCCATCAATTGATAATTATCCCACCCCATTTAACTATAACGCTCTGATCATAGTCAGACCAACATTGCTACGACCCGTATTCGCACCGACAC,-4.43 ± 0.28,-1.31 ± 0.15
ACATTTGTTGATACAACCATAAAAGGATCATTCACCCATAAATTGATAATTATCACACCCACATTTAACTATAACGCTCTGATCATAGTCAGACCAACATTGCTACGACCCGTATTCGCACCGACAC,-3.13 ± 0.14,-0.0129 ± 0.14
ACATTTGTTGATACAACCATAAAAGGATCATTCACCCCTAAATTGATAATTATCACACCCACATTTAACTATAACGCTCTGATCATAGTCAGACCAACATTGCTACGACCCGTATTCGCACCGACAC,-4.73 ± 0.18,-1.36 ± 0.36
ACATTTGTTGATACAACCATAAAAGGATTATTACACCCATTAATTGATAATTATCACACCCAATTTAACTATAACGCTCTGATCATAGTCAGACCAACATTGCTACGACCCGTATTCGCACCGACAC,-2.02 ± 0.28,1.27 ± 0.069
ACATTTGTTGATACAACCATAAAAGTATAATTACACCCATAAATTGATAATTATCACACCCATAAATTGATATTGCCTCTGATCATAGTCAGACCAACATTGCTACGACCCGTATTCGCACCGACAC,-0.954 ± 0.16,-0.606 ± 0.35

# Source: the supplement of paper PMC10201428
